Source: PMC6445127, “WNT5A is transported via lipoprotein particles in the cerebrospinal fluid to regulate hindbrain morphogenesis” (Nature Communications, 2019)

Biological target: T1, human native APOJ (human, UniProt P10909 23-227; P10909 228-449)
T1 construct: Apolipoprotein J (Clusterin), human, native; also called isolated APOJ protein; Clusterin; source: bought: Biovendor (RD162034025)
Experiment: co-IP; in vitro protein binding assay: 2 μg human native APOJ incubated with 150 ng recombinant WNT5A in 200 μl binding buffer (50 mM Tris pH 7.6, 100 mM NaCl, 1 mM EDTA) overnight at 4 °C; precipitated with corresponding antibody or IgG on DynaBeads; washes with 0.5% NP40
Conditions: both partners purified

T1 sequence (P10909 23-227, chain 1 of 2): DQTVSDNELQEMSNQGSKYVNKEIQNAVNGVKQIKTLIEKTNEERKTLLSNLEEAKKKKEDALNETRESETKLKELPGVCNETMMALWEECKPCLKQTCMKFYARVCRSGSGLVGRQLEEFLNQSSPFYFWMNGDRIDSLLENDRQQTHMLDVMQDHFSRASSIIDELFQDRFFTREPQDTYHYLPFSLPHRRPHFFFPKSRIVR
T1 sequence (P10909 228-449, chain 2 of 2): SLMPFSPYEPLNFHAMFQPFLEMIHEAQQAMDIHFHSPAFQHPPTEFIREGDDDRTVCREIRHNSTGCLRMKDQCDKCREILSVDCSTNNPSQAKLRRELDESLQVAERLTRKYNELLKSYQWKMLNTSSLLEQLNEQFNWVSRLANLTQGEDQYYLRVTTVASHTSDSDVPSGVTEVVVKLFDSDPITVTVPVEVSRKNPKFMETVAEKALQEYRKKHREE

- binding result: binds
B1: recombinant WNT5A (ligand, UniProt P22725 62-380, looked up)
chain: IIGAQPLCSQLAGLSQGQKKLCHLYQDHMQYIGEGAKTGIKECQYQFRHRRWNCSTVDNTSVFGRVMQIGSRETAFTYAVSAAGVVNAMSRACREGELSTCGCSRAARPKDLPRDWLWGGCGDNIDYGYRFAKEFVDARERERIHAKGSYESARILMNLHNNEAGRRTVYNLADVACKCHGVSGSCSLKTCWLQLADFRKVGDALKEKYDSAAAMRLNSRGKLVQVNSRFNSPTTQDLVYIDPSPDYCVRNESTGSLGTQGRLCNKTSEGMDGCELMCCGRGYDQFKTVQTERCHCKFHWCCYVKCKKCTEIVDQFVCK
notes: recombinant WNT5A, R&D Systems; 'P22725' is printed where a catalogue number would stand; elsewhere the catalogue number 645-WN-010 is printed; WNT5A'; also called rcWNT5A; rcWnt5a; source: bought: R&D Systems
